Test [1] addresses T1, FUS SYGQ LC (FUS 1-163), N-terminal low complexity domain (UniProt P35637 1-163).
T1 sequence (looked up): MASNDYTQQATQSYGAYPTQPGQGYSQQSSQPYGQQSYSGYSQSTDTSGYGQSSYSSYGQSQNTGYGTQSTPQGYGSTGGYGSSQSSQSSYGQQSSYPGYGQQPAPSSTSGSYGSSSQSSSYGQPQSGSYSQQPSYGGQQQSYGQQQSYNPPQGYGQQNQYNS
The experiment in a line: intermolecular NOE NMR of a condensed phase.

Test [2] addresses T1, FUS SYGQ LC (FUS 1-163), N-terminal low …. Kind of test: co-sedimentation.

B1: FUS RGG3 (453-507) (domain or fragment, UniProt P35637 453-507, looked up)
chain: DGPGGGPGGSHMGGNYGDDRRGGRGGYDRGGYRGRGGDRGGFRGGRGGGDRGGFG
For the molecule B1, in test [1], the binding result was “binds”.

B2: 488-labeled FUS SYGQ LC (FUS 1-163 labelled with DyLight 488 NHS ester) (domain or fragment, UniProt P35637 1-163, looked up)
chain: T1 sequence (looked up)
modifications: DyLight 488 (NHS ester labelling)
On to B2, for which the binding result in test [2] was “binds”.

For the origin of these results see publication PMC8654040 (Nature structural & molecular biology, 2021).
